According to US20150158934A1 (UCL BUSINESS, published 2015):

Experiments:
Experiment in all cases: SPR
CA018 gp140/420 (A/G) = biological target: T1, CA018 gp140/420 (A/G) (HIV-1)
T1 construct: also called gp120 of CA18

[1] = biological target: T2, gp140CN54 (subtype B'/C), gp140 envelope glycoprotein from the HIV-1 group M CRF07-B/C-clade isolate 97CN54 (HIV-1)
T2 construct: also called CN54 gp140/420 (C); CN54 gp140 Env

[2] = biological target: T3, gp140UG37 (subtype A), gp140 envelope glycoprotein from the HIV-1 group M A-clade isolate 92UG037 (HIV-1)
T3 construct: also called UG037 gp140/420 (A); gp140-UG037

gp120IIIB (subgroup B) [3] = biological target: T4, gp120IIIB (subgroup B) (HIV-1, UniProt P04578 33-511)
T4 construct: it is not tied to this reagent; also called IIIB gp120 (B)

gp120IIIB (subgroup B) [4] = biological target: gp120IIIB (subgroup B) (HIV-1, UniProt P04578 33-511)

Binder	Kd (CA018 gp140/420 (A/G)) [nM]	Kd [1] [nM]	Kd [2] [nM]	koff (CA018 gp140/420 (A/G)) [s⁻¹]	kon (CA018 gp140/420 (A/G)) [M⁻¹ s⁻¹]	koff [1] [s⁻¹]	kon [1] [M⁻¹ s⁻¹]	koff [2] [s⁻¹]	kon [2] [M⁻¹ s⁻¹]	Kd (gp120IIIB (subgroup B) [3]) [nM]	koff (gp120IIIB (subgroup B) [3]) [s⁻¹]	kon (gp120IIIB (subgroup B) [3]) [M⁻¹ s⁻¹]	Kd (gp120IIIB (subgroup B) [4]) [nM]	koff (gp120IIIB (subgroup B) [4]) [s⁻¹]	kon (gp120IIIB (subgroup B) [4]) [M⁻¹ s⁻¹]
L91B5 (VHH, Purified by IMAC) VHH: EVQLVESGGGLVQPGGSLRLSCAASGATFDDYAIGWFRQAPGKEREGVSYIGCNDGATYYAGSVKGRFTISCDYAKNTVYLQMNSLKPEDTAVYYCAAAAQWATIRWIHEYDYNIWGQGTQVTVSS	15.6	0.00127	0.174												
L91H9 (VHH, Purified by IMAC; tags not written into the chain) VHH: EVQLVESGGGLVQAGGSLRLSCAVSGATFDDYAIGWFRQAPGKEREGVSYIGCNDGSTYYAGSVKGRFTISCDYAKNTVYLQMNSLKPEDTAVYYCAAAAQWATIRWIHEYDYDTWGQGTQVTVSS	321	0.0625	0.0102	0.428	1.33e+06	1.1e-06	17600	9.81e-08	9610	4.11	0.000711	173000			
L8Cj3 (VHH, 207 chosen because J3r is said to carry S82aN against L8Cj3; also called L8CjJ3; L9Cj3) VHH: EVQLVESGGGLVQAGGFLRLSCELRGSIFNQYAMAWFRQAPGKEREFVAGMGAVPHYGEFVKGRFTISRDNAKSTVYLQMSSLKPEDTAIYFCARSKSTYISYNSNGYDYWGRGTQVTVSS	8.86		0.00702	3.98e-05	4490			5.48e-08	7800						
L82B4F (VHH, Family member of L81H9; tags not written into the chain) VHH: EVQLVESGGGLVQAGGSLRLSCAASGFTSDDYAIGWFRRAPGKEREGVSYISIEDGSTYSADSVKGRFTISSDYAKNTVYLQMNGLKPEDTAVYYCAAAILGDSVRWLQEYDYDYWGQGTQVTVSS	3500		0.0031	0.00298	850			3.25e-08	10500	0.0315	0.000734	2.3e+07			
L91C2 (VHH, Purified by IMAC; tags not written into the chain) VHH: EVQLVESGGGLVQPGGSLRLSCAASGFTLDGYAIGWFRQAPGKEREAISCITTAGTIYYADSVKGRVTISRDNAKNTVYLQMNSLKPEDTAVYLCAADGFDTPCVAGTDWGYDYEGQGTQVTVSS										2.01	0.00025	122000			
L92E7 (VHH, Purified by IMAC; tags not written into the chain) VHH: EVQLVESGGGLVQPGGSLRLSCAASGNIVSIDAAGWFRQAPGKQREPVATILTGGATNYADSVKGRFTISRDNAKNTVYLQMSSLKPEDTAVYYCYAPMIYYGGRYSDYWGQGTQVTVSS	7	4.46	11.2	0.00013	18000	0.00015	33200	0.00025	22200	4.42	0.00077	174000			
mAb 2G12 (antibody, V domains shown) VH: EVQLVESGGGLVKAGGSLILSCGVSNFRISAHTMNWVRRVPGGGLEWVASISTSSTYRDYADAVKGRFTVSRDDLEDFVYLQMHKMRVEDTAIYYCARKGSDRLSDNDPFDAWGPGTVVTVSP VL: DVVMTQSPSTLSASVGDTITITCRASQSIETWLAWYQQKPGKAPKLLIYKASTLKTGVPSRFSGSGSGTEFTLTISGLQFDDFATYHCQHYAGYSATFGQGTRVEIKR													1.91	0.000314	165000
L91F10 (VHH, Purified by IMAC; tags not written into the chain) VHH: EVQLVESGGGLVQPGGSLTLSCVASGFTLDGYAIGWFRQAPGKEVESVSCITGRHGTIYYADSVMGRFTISRDNAKSTVYLQMNSLKPEDTAVYYCAADGFDTPCVAGTDWQYDYWGQGTQVTVSS	1.18	0.0771	3.98	6.94e-05	58800	7.12e-07	9230	0.00012	29300						
